Experimental data as given in patent US5662885A, “Peptide derived radionuclide chelators” (Resolution Pharmaceuticals Inc., priority 1994, dated 1997).
Starred links: 1 amine or outer side, 2 acyl side, 3 side chain; linkers in the order of their positions; H or OH if unused. Non-standard residues stand in square brackets, D forms with d. No end group written: not given here. *: point of attachment. Cys(Acm) = CC(=O)NCSC[C@H](N[*:1])C(=O)[*:2]; Me2Gly = CN(C)CC(=O)*

Columns and labels:
[1] = system: zymosan-induced focal inflammation in left hindleg of rats; conditions: rat, in vivo, iv
Experimental: (§1) Rat inflammation studies were performed as follows. 2 male Wistar rats (Charles River, 200-250 g) were injected intramuscularly with (25 mg) zymosan, a yeast cell wall suspension, into their left hindlegs 24 hours before imaging. Focal inflammation in the leg was visually detectable after 1 day.
(§2) The rats were anaesthetized with somnitol (40 to 50 mg/kg), and the labeled conjugate solution (200 μL) was injected intravenously via the tail vein. Serial whole-body scintigrams were acquired at 30 minutes. The rats were then killed with anaesthesia overdose and samples of organs, urine, blood, inflamed muscle (left leg) and non-inflamed muscle (right leg) and inflammatory exudate (fluid) were weighed and counted in either a well-type gamma counter or in a gamma dose calibrator depending upon the organ. The dose calculations were made based on the assumption that the blood volume constituted 8% of body weight. The results of the conjugates represented in the table below are averages for two rats and are corrected for the residual dose in the tail.

[2] = system: zymosan-induced focal inflammation in left hindleg of rats; assay: Rat inflammation study: in vivo imaging and biodistribution of Tc-99m labeled conjugates; conditions: i.v. tail vein, 30 minutes, average of two rats; for Inflam:Uninfl (target to background ratio, inflamed:uninflamed muscle): zymosan-inflamed left leg vs right leg muscle
Experimental: as §1, §2

Substance | GI Tract (% dose) [1] [% dose] | Liver (% dose) [1] [% dose] | Urine (% dose) [1] [% dose] | Fluid:Blood (inflammatory exudate:blood) [2] | Inflam:Uninfl (target to background ratio, inflamed:uninflamed muscle) [2]
N,N-dimethylGly-Ser-Cys(Acm)-Gly-Thr-Lys-Pro-Pro-Arg-OH ([Me2Gly]S[Cys(Acm)]GTKPPR-OH; also: 99mTc label via N,N-dimethylGly-Ser-Cys(Acm) chelator) [N,N-dimethylGly-Ser-Cys(Acm)-GTKPPR-OH] | 2.8 | 2.4 | 63.5 | 1.9 | 5.3
N,N-dimethylGly-Thr-Cys(Acm)-Gly-Thr-Lys-Pro-Pro-Arg ([Me2Gly]T[Cys(Acm)]GTKPPR; also: 99mTc label via N,N-dimethylGly/Cys(Acm) chelator) [N,N-dimethylGly-Thr-Cys(Acm)-GTKPPR-OH] | 2.5 | 2.4 | 68.5 | 1.6 | 4.6
